Data published in the Immune Epitope Database (IEDB).

Tests used:
HLA-B*07:02 = assay: IEDB peptide-MHC binding, purified MHC/direct/fluorescence; filed as Kd, often an IC50 or EC50 that approximates it; ≥ and ≤ were set here for values at or beyond the usual limits of such assays
HLA-B*51:01 [1] = assay: as above
HLA-A*01:01 = assay: as above
HLA-A*02:01 [2] = assay: as above
HLA-A*03:01 [3] = assay: as above
HLA-A*11:01 [4] = assay: as above
HLA-A*24:03 = assay: as above; conditions: source organism: Vibrio cholerae
HLA-A*26:01 [5] = assay: as above; conditions: source organism: Vibrio cholerae
HLA-A*31:01 [6] = assay: as above
HLA-A*69:01 [7] = assay: as above
HLA-B*08:01 = assay: as above
HLA-B*15:01 = assay: as above
HLA-B*27:05 = assay: as above
HLA-B*40:01 = assay: as above
HLA-B*44:02 = assay: as above
HLA-B*58:01 = assay: as above
HLA-B*15:17 = assay: as above
HLA-B*46:01 [8] = assay: as above
HLA-B*48:01 = assay: as above; conditions: source organism: Giardia lamblia ATCC 50803
HLA-B*57:01 [9] = assay: as above
HLA-A*02:03 = assay: as above; conditions: source organism: Cryptosporidium parvum Iowa II
HLA-A*02:12 = assay: as above
HLA-A*02:19 = assay: as above; conditions: source organism: Cryptosporidium parvum Iowa II
HLA-A*68:02 = assay: as above; conditions: source organism: Cryptosporidium parvum Iowa II
HLA-A*02:01 [10] = assay: IEDB peptide-MHC binding, purified MHC/competitive/fluorescence; filed as Kd, often an IC50 or EC50 that approximates it; ≥ and ≤ were set here for values at or beyond the usual limits of such assays; conditions: source organism: Cryptosporidium parvum Iowa II
HLA-A*26:01 [11] = assay: as above; conditions: source organism: Cryptosporidium parvum Iowa II
HLA-A*69:01 [12] = assay: as above; conditions: source organism: Cryptosporidium parvum Iowa II
HLA-B*18:01 [13] = assay: as above; conditions: source organism: Cryptosporidium parvum Iowa II
HLA-B*27:03 = assay: as above; conditions: source organism: Cryptosporidium parvum Iowa II
HLA-B*39:01 = assay: as above; conditions: source organism: Cryptosporidium parvum Iowa II
HLA-B*46:01 [14] = assay: as above; conditions: source organism: Cryptosporidium parvum Iowa II
HLA-B*51:01 [15] = assay: as above; conditions: source organism: Cryptosporidium parvum Iowa II
HLA-B*57:01 [16] = assay: as above; conditions: source organism: Cryptosporidium parvum Iowa II
HLA-A*03:01 [17] = assay: IEDB peptide-MHC binding, purified MHC/competitive/radioactivity; filed as Kd, often an IC50 or EC50 that approximates it; ≥ and ≤ were set here for values at or beyond the usual limits of such assays; conditions: source organism: Vaccinia virus WR
HLA-A*11:01 [18] = assay: as above; conditions: source organism: Vaccinia virus WR
HLA-A*31:01 [19] = assay: as above; conditions: source organism: Vaccinia virus WR
HLA-A*33:01 = assay: as above; conditions: source organism: Vaccinia virus WR
HLA-A*68:01 = assay: as above; conditions: source organism: Vaccinia virus WR
HLA-B*15:42 = assay: IEDB peptide-MHC binding, purified MHC/competitive/fluorescence; filed as Kd, often an IC50 or EC50 that approximates it; ≥ and ≤ were set here for values at or beyond the usual limits of such assays
HLA-B*45:06 = assay: as above
HLA-B*83:01 = assay: as above
HLA-B*18:01 [20] = assay: IEDB peptide-MHC binding, purified MHC/direct/fluorescence; filed as Kd, often an IC50 or EC50 that approximates it; ≥ and ≤ were set here for values at or beyond the usual limits of such assays; conditions: source organism: Mammarenavirus lassaense
HLA-A*02:16 = assay: as above; conditions: source organism: Listeria monocytogenes serotype 4b str. H7858
[21] = source organism: Mammarenavirus lassaense
[22] = source organism: Vibrio cholerae
[23] = source organism: Giardia lamblia ATCC 50803
[24] = source organism: Cryptosporidium parvum Iowa II
[25] = source organism: Camelpox virus M-96
[26] = source organism: Bacillus cytotoxicus
[27] = source organism: Listeria monocytogenes
[28] = source organism: Listeria monocytogenes serotype 4b str. H7858
[29] = source organism: Yaba-like disease virus
[30] = source organism: Orthohantavirus dobravaense
[31] = source organism: Human immunodeficiency virus 1
[32] = source organism: Mammarenavirus juninense

## CGRSCTSSL
HLA-B*07:02; [21]
  Kd: 0.558 µM
HLA-B*51:01 [1]; [21]
  Kd: ≥ 20 µM

## DSDPMDGCE
HLA-A*01:01; [22]
  Kd: ≥ 20 µM
HLA-A*02:01 [2]; [22]
  Kd: ≥ 20 µM
HLA-A*03:01 [3]; [22]
  Kd: ≥ 20 µM
HLA-A*11:01 [4]; [22]
  Kd: ≥ 20 µM
HLA-A*24:03
  Kd: ≥ 20 µM
HLA-A*26:01 [5]
  Kd: ≥ 20 µM
HLA-A*31:01 [6]; [22]
  Kd: ≥ 20 µM
HLA-A*69:01 [7]; [22]
  Kd: ≥ 20 µM
HLA-B*07:02; [22]
  Kd: ≥ 20 µM
HLA-B*08:01; [22]
  Kd: ≥ 20 µM
HLA-B*15:01; [22]
  Kd: ≥ 20 µM
HLA-B*27:05; [22]
  Kd: ≥ 20 µM
HLA-B*40:01; [22]
  Kd: ≥ 20 µM
HLA-B*44:02; [22]
  Kd: ≥ 20 µM
HLA-B*58:01; [22]
  Kd: ≥ 20 µM

## DSPATLSAY
HLA-A*01:01; [23]
  Kd: ≥ 20 µM
HLA-A*02:01 [2]; [23]
  Kd: ≥ 20 µM
HLA-A*03:01 [3]; [23]
  Kd: ≥ 20 µM
HLA-A*11:01 [4]; [23]
  Kd: ≥ 20 µM
HLA-A*31:01 [6]; [23]
  Kd: ≥ 20 µM
HLA-B*15:01; [23]
  Kd: ≥ 20 µM
HLA-B*15:17; [23]
  Kd: 5.53 µM
HLA-B*27:05; [23]
  Kd: ≥ 20 µM
HLA-B*40:01; [23]
  Kd: ≥ 20 µM
HLA-B*46:01 [8]; [23]
  Kd: ≥ 20 µM
HLA-B*48:01
  Kd: ≥ 20 µM
HLA-B*57:01 [9]; [23]
  Kd: ≥ 20 µM
HLA-B*58:01; [23]
  Kd: ≥ 20 µM

## GFPFFIMPK
HLA-A*02:03
  Kd: ≥ 20 µM
HLA-A*02:12; [24]
  Kd: ≥ 20 µM
HLA-A*02:19
  Kd: ≥ 20 µM
HLA-A*11:01 [4]; [24]
  Kd: 0.078 µM
HLA-A*68:02
  Kd: ≥ 20 µM
HLA-A*02:01 [10]
  Kd: ≥ 20 µM
HLA-A*26:01 [11]
  Kd: ≥ 20 µM
HLA-A*69:01 [12]
  Kd: ≥ 20 µM
HLA-B*18:01 [13]
  Kd: ≥ 20 µM
HLA-B*27:03
  Kd: ≥ 20 µM
HLA-B*39:01
  Kd: ≥ 20 µM
HLA-B*46:01 [14]
  Kd: ≥ 20 µM
HLA-B*51:01 [15]
  Kd: ≥ 20 µM
HLA-B*57:01 [16]
  Kd: ≥ 20 µM

## KSISSIFGY
HLA-B*15:17; [25]
  Kd: ≤ 0.001 µM
HLA-B*57:01 [9]; [25]
  Kd: 0.037 µM
HLA-B*58:01; [25]
  Kd: 0.0015 µM
HLA-A*03:01 [17]
  Kd: 0.0474 µM
HLA-A*11:01 [18]
  Kd: 0.00327 µM
HLA-A*31:01 [19]
  Kd: 0.0866 µM
HLA-A*33:01
  Kd: ≥ 25.2 µM
HLA-A*68:01
  Kd: 6.74 µM

## KSTSPTRTW
HLA-B*15:17; [25]
  Kd: 0.0024 µM
HLA-B*57:01 [9]; [25]
  Kd: 0.0707 µM
HLA-B*58:01; [25]
  Kd: 0.035 µM

## KTMMQAHDL
HLA-B*15:17; [26]
  Kd: 0.226 µM
HLA-B*57:01 [9]; source organism: Bacillus cereus AH1134
  Kd: 0.12 µM
HLA-B*58:01; [26]
  Kd: 0.0759 µM

## LSVSSRCPI
HLA-B*15:17; [21]
  Kd: 0.0041 µM
HLA-B*57:01 [9]; [21]
  Kd: 1.17 µM
HLA-B*58:01; [21]
  Kd: 0.139 µM

## MAMLADYFY
HLA-B*07:02; [27]
  Kd: ≥ 20 µM
HLA-B*15:01; [28]
  Kd: 0.012 µM
HLA-B*51:01 [1]; [27]
  Kd: ≥ 20 µM

## NTDNKFISY
HLA-A*01:01; [25]
  Kd: ≤ 0.001 µM
HLA-B*15:42; [29]
  Kd: ≥ 5 µM
HLA-B*45:06; [29]
  Kd: ≥ 5 µM
HLA-B*83:01; [29]
  Kd: ≥ 5 µM

## QTSSIEGAW
HLA-B*15:17; [30]
  Kd: 5.78 µM
HLA-B*57:01 [9]; [30]
  Kd: ≥ 20 µM
HLA-B*58:01; [30]
  Kd: ≥ 20 µM

## RPMTYKAAL
HLA-A*11:01 [4]; [31]
  Kd: 17.6 µM
HLA-A*69:01 [7]; [31]
  Kd: 11 µM
HLA-B*07:02; [31]
  Kd: 0.0396 µM
HLA-B*15:42; [31]
  Kd: ≥ 5 µM
HLA-B*45:06; [31]
  Kd: ≥ 5 µM
HLA-B*83:01; [31]
  Kd: 0.0987 µM

## SERFINYAI
HLA-B*18:01 [20]
  Kd: 0.033 µM
HLA-B*40:01; [21]
  Kd: 0.0525 µM
HLA-B*15:42; [21]
  Kd: ≥ 5 µM
HLA-B*45:06; [21]
  Kd: ≥ 5 µM
HLA-B*83:01; [21]
  Kd: ≥ 5 µM

## SQDEVLFLV
HLA-A*02:01 [2]; [27]
  Kd: 0.0045 µM
HLA-A*02:12; [28]
  Kd: 0.004 µM
HLA-A*02:16
  Kd: ≤ 0.001 µM
HLA-A*69:01 [7]; [27]
  Kd: 0.0353 µM

## YAKKFKTGM
HLA-A*01:01; [32]
  Kd: ≥ 20 µM
HLA-A*02:01 [2]; [32]
  Kd: ≥ 20 µM
HLA-A*03:01 [3]; [32]
  Kd: ≥ 20 µM
HLA-A*11:01 [4]; [32]
  Kd: ≥ 20 µM
HLA-A*31:01 [6]; [32]
  Kd: ≥ 20 µM
HLA-B*07:02; [32]
  Kd: ≥ 20 µM
HLA-B*08:01; [32]
  Kd: 0.417 µM
HLA-B*27:05; [32]
  Kd: ≥ 20 µM
HLA-B*40:01; [32]
  Kd: ≥ 20 µM
HLA-B*44:02; [32]
  Kd: ≥ 20 µM
HLA-B*46:01 [8]; [32]
  Kd: ≥ 20 µM
HLA-B*57:01 [9]; [32]
  Kd: ≥ 20 µM
HLA-B*58:01; [32]
  Kd: ≥ 20 µM
